Laboratory results from patent publication US20090258024A1.

Molecular target: mouse CD147 (mouse) (UniProt P18572)

With “Rat anti-mouse CD147 monoclonal antibody purified from the RL73.2 hybridoma” the migration induced by CypA (Boyden chamber chemotaxis) of mouse neutrophils, monocytes and activated CD4+ T cells was > 90%.
